# Source: US20240269235A1 (Gilead, published 2024)
# T1: IL-2Rαβγ on KHYG-1 cells (human NK leukemia cell line that expresses IL-2Rα, β, and γ) (human, UniProt P01589 22-272; P14784 27-551; P31785 23-369)
# T1 sequence (looked up) 1: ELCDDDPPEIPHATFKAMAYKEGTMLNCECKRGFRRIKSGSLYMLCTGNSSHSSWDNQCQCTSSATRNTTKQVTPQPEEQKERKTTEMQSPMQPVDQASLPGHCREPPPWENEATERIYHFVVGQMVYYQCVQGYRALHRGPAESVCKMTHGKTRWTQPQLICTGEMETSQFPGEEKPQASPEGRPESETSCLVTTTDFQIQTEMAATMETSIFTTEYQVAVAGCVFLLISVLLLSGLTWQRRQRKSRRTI
# T1 sequence (looked up) 2: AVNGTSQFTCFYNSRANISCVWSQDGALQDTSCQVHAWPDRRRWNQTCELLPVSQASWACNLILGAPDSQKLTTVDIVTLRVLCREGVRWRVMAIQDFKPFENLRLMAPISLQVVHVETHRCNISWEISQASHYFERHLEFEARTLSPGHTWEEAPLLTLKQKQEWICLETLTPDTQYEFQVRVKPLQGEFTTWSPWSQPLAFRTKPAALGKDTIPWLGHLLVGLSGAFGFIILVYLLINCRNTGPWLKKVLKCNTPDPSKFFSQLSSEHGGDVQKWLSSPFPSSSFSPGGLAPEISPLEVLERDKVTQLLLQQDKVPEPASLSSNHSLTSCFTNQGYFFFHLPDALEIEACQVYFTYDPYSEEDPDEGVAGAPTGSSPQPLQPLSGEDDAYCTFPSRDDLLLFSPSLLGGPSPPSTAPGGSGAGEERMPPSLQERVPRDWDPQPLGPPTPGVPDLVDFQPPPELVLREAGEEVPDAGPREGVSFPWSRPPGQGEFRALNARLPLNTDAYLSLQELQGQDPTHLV
# T1 sequence (looked up) 3: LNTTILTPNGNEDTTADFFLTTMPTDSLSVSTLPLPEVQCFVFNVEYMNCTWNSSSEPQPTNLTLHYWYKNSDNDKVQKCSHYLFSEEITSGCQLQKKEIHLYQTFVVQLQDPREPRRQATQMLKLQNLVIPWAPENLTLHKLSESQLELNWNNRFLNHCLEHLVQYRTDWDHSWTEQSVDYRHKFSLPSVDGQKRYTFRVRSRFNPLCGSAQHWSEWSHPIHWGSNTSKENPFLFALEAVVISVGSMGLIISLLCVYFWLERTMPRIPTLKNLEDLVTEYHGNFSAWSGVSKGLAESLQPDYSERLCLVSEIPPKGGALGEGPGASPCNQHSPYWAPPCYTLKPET
# T2: trimeric murine IL-2 receptor (IL-2Rα, IL-2Rβ, and IL-2Rγ) on CTLL-2 cells (murine, UniProt P01590 22-268; P16297 27-539; P34902 23-369)
# T2 sequence (looked up) 1: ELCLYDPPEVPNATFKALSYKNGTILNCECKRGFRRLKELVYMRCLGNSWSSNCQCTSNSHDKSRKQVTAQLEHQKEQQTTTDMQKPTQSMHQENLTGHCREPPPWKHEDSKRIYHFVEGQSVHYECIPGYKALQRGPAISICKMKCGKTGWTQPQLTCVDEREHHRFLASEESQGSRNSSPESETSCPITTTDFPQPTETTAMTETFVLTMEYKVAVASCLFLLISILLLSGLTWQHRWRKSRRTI
# T2 sequence (looked up) 2: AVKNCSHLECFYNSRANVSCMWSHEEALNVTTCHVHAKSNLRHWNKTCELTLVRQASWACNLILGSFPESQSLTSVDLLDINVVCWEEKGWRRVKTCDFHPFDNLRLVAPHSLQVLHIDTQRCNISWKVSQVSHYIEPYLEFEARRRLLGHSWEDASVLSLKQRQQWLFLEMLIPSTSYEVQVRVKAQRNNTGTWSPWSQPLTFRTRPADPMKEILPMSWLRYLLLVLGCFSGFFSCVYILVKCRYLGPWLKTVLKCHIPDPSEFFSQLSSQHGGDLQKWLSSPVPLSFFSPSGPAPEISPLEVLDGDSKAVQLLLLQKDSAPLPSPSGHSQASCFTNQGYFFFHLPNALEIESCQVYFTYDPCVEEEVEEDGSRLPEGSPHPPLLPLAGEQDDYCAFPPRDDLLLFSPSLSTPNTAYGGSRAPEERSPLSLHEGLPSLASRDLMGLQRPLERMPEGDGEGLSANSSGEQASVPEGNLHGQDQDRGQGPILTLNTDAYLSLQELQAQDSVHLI
# T2 sequence (looked up) 3: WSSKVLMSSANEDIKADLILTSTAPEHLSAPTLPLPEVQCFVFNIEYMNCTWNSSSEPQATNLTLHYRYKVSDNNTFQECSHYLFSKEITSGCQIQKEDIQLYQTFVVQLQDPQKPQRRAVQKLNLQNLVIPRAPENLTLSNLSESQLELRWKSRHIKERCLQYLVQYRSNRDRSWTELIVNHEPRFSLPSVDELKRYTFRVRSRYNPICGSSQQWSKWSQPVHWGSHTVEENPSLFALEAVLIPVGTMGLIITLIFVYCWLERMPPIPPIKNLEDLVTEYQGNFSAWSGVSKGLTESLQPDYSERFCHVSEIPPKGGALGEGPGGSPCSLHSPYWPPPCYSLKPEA
# T3: IL-2Rβ and IL-2Rγ on Ba/F3 cells engineered to express murine IL-2Rβ (murine, UniProt P16297 27-539; P34902 23-369)
# T3 sequence (looked up) 1: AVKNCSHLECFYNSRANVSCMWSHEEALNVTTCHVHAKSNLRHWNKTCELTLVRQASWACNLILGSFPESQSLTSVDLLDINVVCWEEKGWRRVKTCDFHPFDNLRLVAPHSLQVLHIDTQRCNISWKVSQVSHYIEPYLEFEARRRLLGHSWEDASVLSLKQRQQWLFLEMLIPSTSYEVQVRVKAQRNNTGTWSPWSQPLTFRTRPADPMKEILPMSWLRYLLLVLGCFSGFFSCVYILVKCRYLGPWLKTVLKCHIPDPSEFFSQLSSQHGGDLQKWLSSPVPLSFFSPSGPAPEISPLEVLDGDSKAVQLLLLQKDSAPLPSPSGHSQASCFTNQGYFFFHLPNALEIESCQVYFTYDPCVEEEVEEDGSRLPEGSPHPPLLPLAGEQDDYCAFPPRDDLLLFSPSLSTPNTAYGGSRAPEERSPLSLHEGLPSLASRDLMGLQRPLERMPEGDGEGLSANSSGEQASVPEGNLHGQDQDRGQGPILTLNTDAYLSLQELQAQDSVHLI
# T3 sequence (looked up) 2: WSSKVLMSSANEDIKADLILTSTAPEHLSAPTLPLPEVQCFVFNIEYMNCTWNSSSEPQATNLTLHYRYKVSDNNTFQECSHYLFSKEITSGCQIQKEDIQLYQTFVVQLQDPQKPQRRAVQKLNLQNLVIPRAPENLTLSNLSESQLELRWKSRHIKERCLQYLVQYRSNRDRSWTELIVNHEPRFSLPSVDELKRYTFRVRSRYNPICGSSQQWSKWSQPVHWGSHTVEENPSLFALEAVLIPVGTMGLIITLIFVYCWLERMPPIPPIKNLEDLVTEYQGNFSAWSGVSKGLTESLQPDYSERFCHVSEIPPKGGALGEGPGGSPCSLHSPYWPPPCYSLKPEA
# Key:
# [1] = target: T4, IL-2Rβγ heterodimer, custom biotinylated Fc fusion protein (human IL-2Rβ 27-240-Fc-FLAG / human IL-2Rγ … (human, site-specific biotinylation at the AviTag)); assay: SPR (Biacore), CM4 chip, biotinylated receptor on neutravidin
# T4 construct: Extracellular regions fused to IgG1 knob-in-hole Fc subunits with tags; also called IL-2 receptor βγ heterodimer; Fc-IL-2Rβγ
# Description: Fc-IL-2 variant binding data was collected on a Biacore platform using a CM4 chip. Neutravidin was immobilized using standard amine coupling methods and used to capture biotinylated receptors. The source, preparation and immobilization of biotinylated IL-2Rα and IL-2Rβγ heterodimer was as described in Example 4. Proleukin was used as a comparator. Fc-IL-2 variants and Proleukin were injected at various concentrations over these surfaces. Kinetic data obtained from these injections was used to extract kₒₙ and koff to calculate KD (KD=Koff/kₒₙ).
# [2] = target: T1, IL-2Rαβγ on KHYG-1 cells (human NK …); assay: cell-based or functional assay
# [3] = target: T2, trimeric murine IL-2 receptor (IL-2Rα, …); assay: cell-based or functional assay
# [4] = target: T2, trimeric murine IL-2 receptor (IL-2Rα, …); assay: cell-based or functional assay; remark: listed apart in the source
# [5] = target: T3, IL-2Rβ and IL-2Rγ on Ba/F3 cells …; assay: cell-based or functional assay
Kd [1] [nM],"Proliferation of KHYG-1 NK cells, EC50 [2] [nM]","STAT5 activation of CTLL-2 cells, EC50 [3] [nM]","pSTAT5 EC50, STAT5 activation of CTLL-2 cells [4] [nM]","Proliferation EC50, Ba/F3 cells [5] [nM]",Binder
0.072,0.344,3.1,,,"Fc-IL-2v heterodimer 113.46 (hIL-2v_Δ1-5_R38G_E62A_C125S) (Fc fusion, hIgG4 knob-in-hole Fc heterodimer, one IL-2v on the knob chain) chain 1: ESKYGPPCPPCPAPEAAGGPSVFLFPPKPKDTLMISRTPEVTCVVVDVSQEDPEVQFNWYVDGVEVHNAKTKPREEQFNSTYRVVSVLTVLHQDWLNGKEYKCKVSNKGLPSSIEKTISKAKGQPREPQVYTLPPSQEEMTKNQVSLWCLVKGFYPSDIAVEWESNGQPENNYKTTPPVLDSDGSFFLYSRLTVDKSRWQEGNVFSCSVMHEALHNHYTQKSLSLSLGGGGGSGGGGSGGGGSGGGGSSTKKTQLQLEHLLLDLQMILNGINNYKNPKLTGMLTFKFYMPKKATELKHLQCLEEALKPLEEVLNLAQSKNFHLRPRDLISNINVIVLELKGSETTFMCEYADETATIVEFLNRWITFSQSIISTLT chain 2: ESKYGPPCPPCPAPEAAGGPSVFLFPPKPKDTLMISRTPEVTCVVVDVSQEDPEVQFNWYVDGVEVHNAKTKPREEQFNSTYRVVSVLTVLHQDWLNGKEYKCKVSNKGLPSSIEKTISKAKGQPREPQVYTLPPSQEEMTKNQVSLSCAVKGFYPSDIAVEWESNGQPENNYKTTPPVLDSDGSFFLVSRLTVDKSRWQEGNVFSCSVMHEALHNRFTQKSLSLSLGK"
,,,0.002,4.1,"mouse surrogate Fc-IL-2 heterodimer 165.250 (IL2v_C140A), native IL-2Rα binding interface (Fc fusion) chain 1: GPTIKPCPPCKCPAPNAAGGPSVFIFPPKIKDVLMISLSPIVTCVVVDVSEDDPDVQISWFVNNVEVHTAQTQTHREDYNSTLRVVSALPIQHQDWMSGKEFKCKVNNKDLGAPIERTISKPKGSVRAPQVYVLPPPEEEMTKKQVTLWCMVTDFMPEDIYVEWTNNGKTELNYKNTEPVLDSDGSYFMYSKLRVEKKNWVERNSYSCSVVHEGLHNHHTTKSFSRTPGGGGGSGGGGSGGGGSGGGGSQQQHLEQLLMDLQELLSRMENYRNLKLPRMLTFKFYLPKQATELKDLQCLEDELGPLRHVLDLTQSKSFQLEDAENFISNIRVTVVKLKGSDNTFECQFDDESATVVDFLRRWIAFAQSIISTSPQ chain 2: GPTIKPCPPCKCPAPNAAGGPSVFIFPPKIKDVLMISLSPIVTCVVVDVSEDDPDVQISWFVNNVEVHTAQTQTHREDYNSTLRVVSALPIQHQDWMSGKEFKCKVNNKDLGAPIERTISKPKGSVRAPQVYVLPPPEEEMTKKQVTLSCAVTDFMPEDIYVEWTNNGKTELNYKNTEPVLDSDGSYFMVSKLRVEKKNWVERNSYSCSVVHEGLHNHHTTKSFSRTPGK"
